First the molecules themselves.
B1: Modified MTSP-1 protease domain Q38H/I41S/D60bT/F60eS/Y60gW/F97D/ins97aV/T98P/F99L/C122S/G151H/Q175L/Q192E (enzyme)
chain: VVGGTDADEGEWPWQVSLHALGHGHSCGASLISPNWLVSAAHCYIDTRGSRWSDPTQWTAFLGLHDQSQRSAPGVQERRLKRIISHPFFNDDVPLDYDIALLELEKPAEYSSMVRPISLPDASHVFPAGKAIWVTGWGHTQYGGTHALILQKGEIRVINQTTCENLLPQLITPRMMCVGFLSGGVDSCEGDSGGPLSSVEADGRIFQAGVVSWGDGCAQRNKPGVYTRLPLFRDWIKENTGV
B2: Q38H/I41S/D60bT/F60eS/Y60gW/F97D/ins97aV/T98P/F99L/C122S/G151H/Q175L/Q192D (enzyme)
chain: VVGGTDADEGEWPWQVSLHALGHGHSCGASLISPNWLVSAAHCYIDTRGSRWSDPTQWTAFLGLHDQSQRSAPGVQERRLKRIISHPFFNDDVPLDYDIALLELEKPAEYSSMVRPISLPDASHVFPAGKAIWVTGWGHTQYGGTHALILQKGEIRVINQTTCENLLPQLITPRMMCVGFLSGGVDSCDGDSGGPLSSVEADGRIFQAGVVSWGDGCAQRNKPGVYTRLPLFRDWIKENTGV
B3: Modified MTSP-1 protease domain Q38H/I41A/D60bV/F60eR/Y60gW/D96I/F97Y/ins97aN/T98G/F99L/C122S/G151N/Q175L/Q192D (enzyme)
chain: VVGGTDADEGEWPWQVSLHALGHGHACGASLISPNWLVSAAHCYIDVRGRRWSDPTQWTAFLGLHDQSQRSAPGVQERRLKRIISHPFFNIYNGLDYDIALLELEKPAEYSSMVRPISLPDASHVFPAGKAIWVTGWGHTQYGGTNALILQKGEIRVINQTTCENLLPQLITPRMMCVGFLSGGVDSCDGDSGGPLSSVEADGRIFQAGVVSWGDGCAQRNKPGVYTRLPLFRDWIKENTGV
B4: Modified MTSP-1 protease domain Q38H/I41S/D60bT/F60eS/Y60gW/F97D/ins97aV/T98P/F99L/C122S/G151H/Q175L/Q192D (enzyme)
chain: VVGGTDADEGEWPWQVSLHALGHGHSCGASLISPNWLVSAAHCYIDTRGSRWSDPTQWTAFLGLHDQSQRSAPGVQERRLKRIISHPFFNDDVPLDYDIALLELEKPAEYSSMVRPISLPDASHVFPAGKAIWVTGWGHTQYGGTHALILQKGEIRVINQTTCENLLPQLITPRMMCVGFLSGGVDSCDGDSGGPLSSVEADGRIFQAGVVSWGDGCAQRNKPGVYTRLPLFRDWIKENTGV
B5: Modified MTSP-1 protease domain Q38H/I41S/D60bT/F60eS/Y60gW/D96V/F97G/ins97aV/T98P/F99L/C122S/G151H/Q175L/Q192D (enzyme)
chain: VVGGTDADEGEWPWQVSLHALGHGHSCGASLISPNWLVSAAHCYIDTRGSRWSDPTQWTAFLGLHDQSQRSAPGVQERRLKRIISHPFFNVGVPLDYDIALLELEKPAEYSSMVRPISLPDASHVFPAGKAIWVTGWGHTQYGGTHALILQKGEIRVINQTTCENLLPQLITPRMMCVGFLSGGVDSCDGDSGGPLSSVEADGRIFQAGVVSWGDGCAQRNKPGVYTRLPLFRDWIKENTGV
B6: Modified MTSP-1 protease domain Q38H/I41S/D60bT/F60eS/Y60gW/D96Y/F97E/ins97aV/T98G/F99L/C122S/G151H/Q175L/Q192D (enzyme)
chain: VVGGTDADEGEWPWQVSLHALGHGHSCGASLISPNWLVSAAHCYIDTRGSRWSDPTQWTAFLGLHDQSQRSAPGVQERRLKRIISHPFFNYEVGLDYDIALLELEKPAEYSSMVRPISLPDASHVFPAGKAIWVTGWGHTQYGGTHALILQKGEIRVINQTTCENLLPQLITPRMMCVGFLSGGVDSCDGDSGGPLSSVEADGRIFQAGVVSWGDGCAQRNKPGVYTRLPLFRDWIKENTGV
B7: Modified MTSP-1 protease domain Q38H/I41A/D60bT/F60eK/Y60gW/F97T/ins97aE/T98G/F99L/C122S/G151H/Q175L/Q192D (enzyme)
chain: VVGGTDADEGEWPWQVSLHALGHGHACGASLISPNWLVSAAHCYIDTRGKRWSDPTQWTAFLGLHDQSQRSAPGVQERRLKRIISHPFFNDTEGLDYDIALLELEKPAEYSSMVRPISLPDASHVFPAGKAIWVTGWGHTQYGGTHALILQKGEIRVINQTTCENLLPQLITPRMMCVGFLSGGVDSCDGDSGGPLSSVEADGRIFQAGVVSWGDGCAQRNKPGVYTRLPLFRDWIKENTGV
B8: I41R/F97T/Ins97aE/T98G/F99L/C122S/G151N/Q175L/Q192E (enzyme)
chain: VVGGTDADEGEWPWQVSLHALGQGHRCGASLISPNWLVSAAHCYIDDRGFRYSDPTQWTAFLGLHDQSQRSAPGVQERRLKRIISHPFFNDTEGLDYDIALLELEKPAEYSSMVRPISLPDASHVFPAGKAIWVTGWGHTQYGGTNALILQKGEIRVINQTTCENLLPQLITPRMMCVGFLSGGVDSCEGDSGGPLSSVEADGRIFQAGVVSWGDGCAQRNKPGVYTRLPLFRDWIKENTGV
B9: Q38H/I41A/D60bT/F60eK/Y60gW/F97T/ins97aE/T98G/F99L/C122S/G151H/Q175L/Q192D (enzyme)
chain: VVGGTDADEGEWPWQVSLHALGHGHACGASLISPNWLVSAAHCYIDTRGKRWSDPTQWTAFLGLHDQSQRSAPGVQERRLKRIISHPFFNDTEGLDYDIALLELEKPAEYSSMVRPISLPDASHVFPAGKAIWVTGWGHTQYGGTHALILQKGEIRVINQTTCENLLPQLITPRMMCVGFLSGGVDSCDGDSGGPLSSVEADGRIFQAGVVSWGDGCAQRNKPGVYTRLPLFRDWIKENTGV
B10: Modified MTSP-1 protease domain Q38H/I41S/D60bT/F60eS/Y60gW/F97D/ins97aV/T98P/F99L/C122S/G151N/Q175L/Q192D (enzyme)
chain: VVGGTDADEGEWPWQVSLHALGHGHSCGASLISPNWLVSAAHCYIDTRGSRWSDPTQWTAFLGLHDQSQRSAPGVQERRLKRIISHPFFNDDVPLDYDIALLELEKPAEYSSMVRPISLPDASHVFPAGKAIWVTGWGHTQYGGTNALILQKGEIRVINQTTCENLLPQLITPRMMCVGFLSGGVDSCDGDSGGPLSSVEADGRIFQAGVVSWGDGCAQRNKPGVYTRLPLFRDWIKENTGV
B11: Modified MTSP-1 protease domain Q38H/I41A/D60bV/F60eR/Y60gW/F97T/ins97aE/T98G/F99L/C122S/G151H/Q175L/Q192D (enzyme)
chain: VVGGTDADEGEWPWQVSLHALGHGHACGASLISPNWLVSAAHCYIDVRGRRWSDPTQWTAFLGLHDQSQRSAPGVQERRLKRIISHPFFNDTEGLDYDIALLELEKPAEYSSMVRPISLPDASHVFPAGKAIWVTGWGHTQYGGTHALILQKGEIRVINQTTCENLLPQLITPRMMCVGFLSGGVDSCDGDSGGPLSSVEADGRIFQAGVVSWGDGCAQRNKPGVYTRLPLFRDWIKENTGV
B12: Modified MTSP-1 protease domain I41R/F97T/Ins97aE/T98G/F99L/C122S/G151N/Q175L/Q192E (enzyme)
chain: VVGGTDADEGEWPWQVSLHALGQGHRCGASLISPNWLVSAAHCYIDDRGFRYSDPTQWTAFLGLHDQSQRSAPGVQERRLKRIISHPFFNDTEGLDYDIALLELEKPAEYSSMVRPISLPDASHVFPAGKAIWVTGWGHTQYGGTNALILQKGEIRVINQTTCENLLPQLITPRMMCVGFLSGGVDSCEGDSGGPLSSVEADGRIFQAGVVSWGDGCAQRNKPGVYTRLPLFRDWIKENTGV
B13: Modified MTSP-1 protease domain Q38H/I41S/D60bT/F60eS/Y60gW/D96K/F97D/ins97aA/T98P/F99L/C122S/G151N/Q175L/Q192D (enzyme)
chain: VVGGTDADEGEWPWQVSLHALGHGHSCGASLISPNWLVSAAHCYIDTRGSRWSDPTQWTAFLGLHDQSQRSAPGVQERRLKRIISHPFFNKDAPLDYDIALLELEKPAEYSSMVRPISLPDASHVFPAGKAIWVTGWGHTQYGGTNALILQKGEIRVINQTTCENLLPQLITPRMMCVGFLSGGVDSCDGDSGGPLSSVEADGRIFQAGVVSWGDGCAQRNKPGVYTRLPLFRDWIKENTGV
B14: Q38H/I41A/D60bV/F60eR/Y60gW/F97T/ins97aE/T98G/F99L/C122S/G151H/Q175L/Q192D (enzyme)
chain: VVGGTDADEGEWPWQVSLHALGHGHACGASLISPNWLVSAAHCYIDVRGRRWSDPTQWTAFLGLHDQSQRSAPGVQERRLKRIISHPFFNDTEGLDYDIALLELEKPAEYSSMVRPISLPDASHVFPAGKAIWVTGWGHTQYGGTHALILQKGEIRVINQTTCENLLPQLITPRMMCVGFLSGGVDSCDGDSGGPLSSVEADGRIFQAGVVSWGDGCAQRNKPGVYTRLPLFRDWIKENTGV
B15: Modified MTSP-1 protease domain Q38H/I41A/D60bV/F60eR/Y60gW/D96P/F97W/ins97aN/T98G/F99L/C122S/G151N/Q175L/Q192E (enzyme)
chain: VVGGTDADEGEWPWQVSLHALGHGHACGASLISPNWLVSAAHCYIDVRGRRWSDPTQWTAFLGLHDQSQRSAPGVQERRLKRIISHPFFNPWNGLDYDIALLELEKPAEYSSMVRPISLPDASHVFPAGKAIWVTGWGHTQYGGTNALILQKGEIRVINQTTCENLLPQLITPRMMCVGFLSGGVDSCEGDSGGPLSSVEADGRIFQAGVVSWGDGCAQRNKPGVYTRLPLFRDWIKENTGV
B16: Modified MTSP-1 protease domain Q38H/I41S/D60bT/F60eS/Y60gW/D96K/F97D/ins97aA/T98P/F99L/C122S/G151H/Q175L/Q192D (enzyme)
chain: VVGGTDADEGEWPWQVSLHALGHGHSCGASLISPNWLVSAAHCYIDTRGSRWSDPTQWTAFLGLHDQSQRSAPGVQERRLKRIISHPFFNKDAPLDYDIALLELEKPAEYSSMVRPISLPDASHVFPAGKAIWVTGWGHTQYGGTHALILQKGEIRVINQTTCENLLPQLITPRMMCVGFLSGGVDSCDGDSGGPLSSVEADGRIFQAGVVSWGDGCAQRNKPGVYTRLPLFRDWIKENTGV
B17: Modified MTSP-1 protease domain Q38H/I41S/D60bT/F60eS/Y60gW/D96L/F97D/ins97aG/T98N/F99L/C122S/G151H/Q175L/Q192E (enzyme)
chain: VVGGTDADEGEWPWQVSLHALGHGHSCGASLISPNWLVSAAHCYIDTRGSRWSDPTQWTAFLGLHDQSQRSAPGVQERRLKRIISHPFFNLDGNLDYDIALLELEKPAEYSSMVRPISLPDASHVFPAGKAIWVTGWGHTQYGGTHALILQKGEIRVINQTTCENLLPQLITPRMMCVGFLSGGVDSCEGDSGGPLSSVEADGRIFQAGVVSWGDGCAQRNKPGVYTRLPLFRDWIKENTGV
B18: Modified MTSP-1 protease domain Q38H/I41A/D60bV/F60eR/Y60gW/D96I/F97N/T98G/F99L/C122S/G151N/Q175L/Q192D (enzyme)
chain: VVGGTDADEGEWPWQVSLHALGHGHACGASLISPNWLVSAAHCYIDVRGRRWSDPTQWTAFLGLHDQSQRSAPGVQERRLKRIISHPFFNINGLDYDIALLELEKPAEYSSMVRPISLPDASHVFPAGKAIWVTGWGHTQYGGTNALILQKGEIRVINQTTCENLLPQLITPRMMCVGFLSGGVDSCDGDSGGPLSSVEADGRIFQAGVVSWGDGCAQRNKPGVYTRLPLFRDWIKENTGV
B19: Wild-type MTSP-1 protease domain with C122S (enzyme)
chain: VVGGTDADEGEWPWQVSLHALGQGHICGASLISPNWLVSAAHCYIDDRGFRYSDPTQWTAFLGLHDQSQRSAPGVQERRLKRIISHPFFNDFTFDYDIALLELEKPAEYSSMVRPISLPDASHVFPAGKAIWVTGWGHTQYGGTGALILQKGEIRVINQTTCENLLPQQITPRMMCVGFLSGGVDSCQGDSGGPLSSVEADGRIFQAGVVSWGDGCAQRNKPGVYTRLPLFRDWIKENTGV

proteinase-activated receptor 2 (PAR-2), sequence (P55085 37-397 limits assumed): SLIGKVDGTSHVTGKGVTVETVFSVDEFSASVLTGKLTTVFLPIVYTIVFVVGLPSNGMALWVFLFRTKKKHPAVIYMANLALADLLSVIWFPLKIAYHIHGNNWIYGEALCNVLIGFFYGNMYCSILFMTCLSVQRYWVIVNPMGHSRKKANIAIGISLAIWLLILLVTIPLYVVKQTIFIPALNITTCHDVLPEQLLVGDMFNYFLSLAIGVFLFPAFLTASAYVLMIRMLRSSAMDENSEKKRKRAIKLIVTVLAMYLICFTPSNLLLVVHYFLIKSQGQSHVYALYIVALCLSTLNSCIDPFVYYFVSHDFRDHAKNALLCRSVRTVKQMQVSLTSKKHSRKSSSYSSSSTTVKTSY

This assay has as its target proteinase-activated receptor 2 (PAR-2) (UniProt P55085). In words: cell-based or functional assay.
The molecule B1 gave a PAR-2 cell based assay ED50 and SKGR/SL kcat/Km, against wild-type MTSP-1 protease domain with C122S of more than 30 fold. Turning to B2, the PAR-2 Cell Based Assay ED50 was 640 nM. For B3, the PAR-2 cell based assay ED50 and SKGR/SL kcat/Km, against wild-type MTSP-1 protease domain with C122S is more than 30 fold.

With B4, the PAR-2 cell based assay ED50 and SKGR/SL kcat/Km, against wild-type MTSP-1 protease domain with C122S was more than 30 fold. Molecule B5 displayed a PAR-2 cell based assay ED50 and SKGR/SL kcat/Km, against wild-type MTSP-1 protease domain with C122S of more than 30 fold. The same measure, in the same setting: under B6 stands more than 30 fold; under B7, more than 30 fold. The molecule B8 gave a PAR-2 Cell Based Assay ED50 of 2600 nM. Same read-out and setting: under B9 stands 560 nM. On to B10, for which the PAR-2 cell based assay ED50 and SKGR/SL kcat/Km, against wild-type MTSP-1 protease domain with C122S is more than 30 fold. B11 returned a PAR-2 cell based assay ED50 and SKGR/SL kcat/Km, against wild-type MTSP-1 protease domain with C122S of more than 30 fold. Same read-out and setting: next, B12: more than 30 fold; B13: more than 30 fold.

As for B14, the PAR-2 Cell Based Assay ED50 was determined as 430 nM. On to B15, for which the PAR-2 cell based assay ED50 and SKGR/SL kcat/Km, against wild-type MTSP-1 protease domain with C122S was more than 30 fold. On the same count and under the same terms, under B16 stands more than 30 fold; under B17, more than 30 fold. Still for that read-out and setting: under B18 stands more than 30 fold. B19 showed a PAR-2 Cell Based Assay ED50 of 1.4 nM.

Source of the values: patent publication US20240018502A1.
